The text below walks through data of patent US20190038582A1 (published 2019).

The target of one data set is T1, TPX2.
T1 chain: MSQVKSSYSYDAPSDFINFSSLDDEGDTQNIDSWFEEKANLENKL

In data set [1] the target is T2, dephosphorylated Aurora A kinase (Aurora A^122-403) (UniProt O14965 122-403).
T2 chain: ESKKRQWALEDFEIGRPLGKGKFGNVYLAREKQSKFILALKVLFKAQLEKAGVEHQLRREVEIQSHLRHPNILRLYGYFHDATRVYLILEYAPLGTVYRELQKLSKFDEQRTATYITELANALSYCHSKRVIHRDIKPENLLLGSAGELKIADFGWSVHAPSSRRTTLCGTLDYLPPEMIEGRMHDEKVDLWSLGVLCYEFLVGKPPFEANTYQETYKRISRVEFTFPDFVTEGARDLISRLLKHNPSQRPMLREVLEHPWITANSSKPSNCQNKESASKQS
As to the kind of experiment: ITC.

The target in data set [2] is T3, Aurora A kinase in HEK293 cells (human, UniProt O14965 1-403).
T3 construct: not on the cell surface; also called Aurora A kinase (endogenous, HEK293)
T3 sequence: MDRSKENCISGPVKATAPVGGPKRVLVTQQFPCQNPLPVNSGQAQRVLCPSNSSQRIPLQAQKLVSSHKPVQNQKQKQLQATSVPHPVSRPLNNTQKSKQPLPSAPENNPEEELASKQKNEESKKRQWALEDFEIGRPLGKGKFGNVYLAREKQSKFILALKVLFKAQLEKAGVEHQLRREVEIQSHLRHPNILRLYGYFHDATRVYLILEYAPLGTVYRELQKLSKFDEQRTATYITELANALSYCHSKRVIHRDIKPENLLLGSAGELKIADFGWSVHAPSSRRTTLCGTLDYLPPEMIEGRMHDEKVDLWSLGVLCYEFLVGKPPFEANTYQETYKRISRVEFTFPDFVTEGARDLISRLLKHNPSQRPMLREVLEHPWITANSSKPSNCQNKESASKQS
In words: immunofluorescence co-localization in HEK293 cells.

The target of data set [3] is T2, dephosphorylated Aurora A kinase …. In words: ITC.
In data set [4] the target is T4, dephosphorylated Aurora A kinase (Aurora A^122-403) (human, UniProt O14965 122-403).
T4 construct: also called AurA; deP Aurora A^122-403
T4 sequence: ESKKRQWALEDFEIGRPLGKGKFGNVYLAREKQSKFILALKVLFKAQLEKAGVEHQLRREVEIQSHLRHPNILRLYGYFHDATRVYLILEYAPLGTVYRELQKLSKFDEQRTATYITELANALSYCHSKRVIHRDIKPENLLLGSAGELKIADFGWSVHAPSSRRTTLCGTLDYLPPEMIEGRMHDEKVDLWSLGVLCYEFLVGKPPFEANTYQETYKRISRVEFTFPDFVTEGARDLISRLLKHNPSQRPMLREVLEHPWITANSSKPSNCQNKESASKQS
In words: told with the kinase assay results (FIG. 9); method of the affinity not named there.

For data set [5], the target named is T2, dephosphorylated Aurora A kinase …. As to the kind of experiment: ITC.
The target in data set [6] is T4, dephosphorylated Aurora A kinase …. In words: ITC; Aurora A pre-saturated with barasertib. On the procedure:
(§1) Titrations were carried out using Nano ITC isothermal titration calorimeter (TA Instruments) and analyzed via the NanoAnalyze software using the independent fit model. Injectant was added in 1 μl volume, every 180 s, with a constant stirring speed at 350 rpm and at 25° C.

For data set [7] the target is unchanged. As to the kind of experiment: ITC. On the procedure: Error bars in FIGS. 18D and 18F represent the standard error for the estimate of Kd and are a measure of the goodness of fit of the data. Error bars in FIG. 18C were calculated through jackknifing.
as §1

Data set [8] concerns the target T2, dephosphorylated Aurora A kinase …. As to the kind of experiment: ITC.
Data set [9] shares this target. In words: ITC.

Where two headings read alike, the source gives them in different places.

B1: Aurora A T288V mutant (A^122-403 T288V) (protein)
chain: ESKKRQWALEDFEIGRPLGKGKFGNVYLAREKQSKFILALKVLFKAQLEKAGVEHQLRREVEIQSHLRHPNILRLYGYFHDATRVYLILEYAPLGTVYRELQKLSKFDEQRTATYITELANALSYCHSKRVIHRDIKPENLLLGSAGELKIADFGWSVHAPSSRRTVLCGTLDYLPPEMIEGRMHDEKVDLWSLGVLCYEFLVGKPPFEANTYQETYKRISRVEFTFPDFVTEGARDLISRLLKHNPSQRPMLREVLEHPWITANSSKPSNCQNKESASKQS
B1: the “kinase activity (phosphorylation of AP peptide)” value in the data set with TPX2 is given as “greatly increased its kinase activity”.

B2: phosphorylated Aurora A kinase (protein)
chain: ESKKRQWALEDFEIGRPLGKGKFGNVYLAREKQSKFILALKVLFKAQLEKAGVEHQLRREVEIQSHLRHPNILRLYGYFHDATRVYLILEYAPLGTVYRELQKLSKFDEQRTATYITELANALSYCHSKRVIHRDIKPENLLLGSAGELKIADFGWSVHAPSSRRTTLCGTLDYLPPEMIEGRMHDEKVDLWSLGVLCYEFLVGKPPFEANTYQETYKRISRVEFTFPDFVTEGARDLISRLLKHNPSQRPMLREVLEHPWITANSSKPSNCQNKESASKQS
B2: the “kinase activity (phosphorylation of AP peptide)” value with TPX2 was “only slightly increased kinase activity”.

B3: sGFP-Mb6 fusion polypeptide (designed binder)
chain: GSVSSVPTKLEVVAATPTSLLISWDAFGHQYEPVYYYRITYGETGGNSPVQEFTVPGYYSTATISGLKPGVDYTITVYAWYVDGSYSSPISINYRT
notes: also called neutral sGFP-Mb6; not shown: supercharged GFP (sGFP)
B3 registered a dissociation constant Kd in data set [1] of 27.4 nM. Moreover, in data set [2], the binding result is given as “binds”.

B4: monobody Mb2 (aka Mb6) (AuroraA_2) (designed binder)
chain: GSVSSVPTKLEVVAATPTSLLISWDAFGHQYEPVYYYRITYGETGGNSPVQEFTVPGYYSTATISGLKPGVDYTITVYAWYVDGSYSSPISINYRT
notes: also called neutral monobody
Consider B4, for which, in data set [3], the affinity, expressed as Kd, was 8.7 nM. Also, the binding result in [4] was “binds”.

B5: monobody Mb51 (AuroraA_51) (designed binder)
chain: GSVSSVPTKLEVVAATPTSLLISWDAKPMSYEPVYYYRITYGETGGNSPVQEFTVPGYYSTATISGLKPGVDYTITVYADSMSSYYYSPISINYRT
notes: FN3-scaffold monobody
The molecule B5 came in with a Kd in [5] of 76.9 nM. Besides, in data set [6], the “fold weakening of binding affinity (Aurora A pre-saturated with barasertib against Aurora A alone)” value was found to be 2.8 fold.

B6: monobody Mb56 (AuroraA_56) (designed binder)
chain: GSVSSVPTKLEVVAATPTSLLISWDAMSDWYYWVDYYRITYGETGGNSPVQEFTVPGSYSTATISGLKPGVDYTITVYASDDVWGDYSPISINYRT
notes: FN3-scaffold monobody; also called Mb3
B6: the binding result in data set [7] is recorded as “binds”. This molecule came in with a Kd in data set [5] of 163 nM.

B7: TPX2 (other)
chain: MSQVKSSYSYDAPSDFINFSSLDDEGDTQNIDSWFEEKANLENKL
notes: also called TPX2 polypeptide
B7: the Kd in [7] is about 5000 nM; in data set [8], 5400 nM.

B8: monobody Mb44 (AuroraA_44) (designed binder)
chain: GSVSSVPTKLEVVAATPTSLLISWDAPAVTVDFYVITYGETGGYSYPWQEFEVPGSKSTATISGLKPGVDYTITVYADYGQYFYSPISINYRT
notes: FN3-scaffold monobody; also called M44
In turn, B8 displayed a Kd in data set [5] of 3280 nM. Also, the “fold weakening of binding affinity (Aurora A pre-saturated with barasertib against Aurora A alone)” value in data set [6] is 5 fold.

B9: monobody Mb60 (AuroraA_60) (designed binder)
chain: GSVSSVPTKLEVVAATPTSLLISWDAPAVTVVHYVITYGETGGNSPVQEFTVPGSKSTATISGLKPGVDYTITVYAIDFYWGSYSPISINYRT
notes: FN3-scaffold monobody; also called Mb2 (alternative name herein)
B9: the binding result in data set [7] is given as “binds”. In data set [8], this molecule returned a dissociation constant Kd of 1000 nM.

B10: sGFP-Mb60 fusion polypeptide (designed binder)
chain: GSVSSVPTKLEVVAATPTSLLISWDAPAVTVVHYVITYGETGGNSPVQEFTVPGSKSTATISGLKPGVDYTITVYAIDFYWGSYSPISINYRT
notes: also called sGFP-Mb2 (aka Mb60); not shown: supercharged GFP (sGFP)
B10: the binding result in [7] and in data set [2] was “binds” each time. Also, in [9], the Kd amounted to 2500 nM.

B11: monobody Mb54 (AuroraA_54) (designed binder)
chain: GSVSSVPTKLEVVAATPTSLLISWDAQTYQMYDYVSYYRITYGETGGNSPVQEFTVPGYYSTATISGLKPGVDYTITVYAEGYYSSYSPISINYRT
notes: FN3-scaffold monobody; also called Mb1
Consider B11, for which, in [7], the binding result is given as “binds”. The dissociation constant (Kd) in data set [8] was 175 nM.

B12: sGFP-Mb54 fusion polypeptide (designed binder)
chain: GSVSSVPTKLEVVAATPTSLLISWDAQTYQMYDYVSYYRITYGETGGNSPVQEFTVPGYYSTATISGLKPGVDYTITVYAEGYYSSYSPISINYRT
notes: also called sGFP-Mb54 (aka Mb1); sGFP-Mb1; not shown: supercharged GFP (sGFP)
In the case of B12, the binding result in [7] and in [2] was “binds” throughout. Binding in data set [1] was characterised by a dissociation constant (Kd) of 121 nM.
